Measured values reported in US11639389B2.

Biological target: Purified Fc fusion protein of Human CTLA4 (human)
Test: BLI (Fortebio), CTLA4-Fc immobilized by amine reactive chemistry

Kd: 2 nM
Substance: Anti CTLA4 IgG (BioLegend A3.B10.G1) (antibody)
